Assay results as given in US20260151504A1, “SYNTHETIC CELLS COMPRISING TNF-RELATED APOPTOSIS-INDUCING LIGAND (TRAIL) AND METHODS OF USING THE SAME” (Slingshot Biosciences, Inc., priority 2023, published 2026).

How the values were obtained:
[1] = biological target: TRAIL receptors DR4 and/or DR5; test: cell-based or functional assay
streptavidin [2] = biological target: streptavidin (UniProt P22629); test: flow cytometry, antibody staining of STV magnetic beads, BD Quantibrite PE standard curve
streptavidin [3] = biological target: streptavidin (UniProt P22629); test: flow cytometry, antibody staining of STV porous hydrogel microspheres, BD Quantibrite PE standard curve
streptavidin [4] = biological target: streptavidin (UniProt P22629); test: flow cytometry, antibody staining of STV smooth hydrogel microspheres, BD Quantibrite PE standard curve

Sequence of streptavidin (P22629 37-163 limits assumed): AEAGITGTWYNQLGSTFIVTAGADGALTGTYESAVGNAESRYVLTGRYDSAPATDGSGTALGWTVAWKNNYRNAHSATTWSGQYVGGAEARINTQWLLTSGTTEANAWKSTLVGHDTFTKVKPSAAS

Substance soluble TRAIL protein (ligand) has an Early Stage Apoptotic (7-AAD-/Annexin V+), Jeko-1, 24 Hrs.; Soluble TRAIL [1] of 35.8%, an Early Stage Apoptotic (7-AAD-/Annexin V+), Jeko-1, 48 Hrs.; Soluble TRAIL [1] of 9.88% and an Early Stage Apoptotic (7-AAD-/Annexin V+), Jurkat, 24 Hrs.; Soluble TRAIL [1] of 51.1%. For the same substance, the Early Stage Apoptotic (7-AAD-/Annexin V+), Jurkat, 48 Hrs.; Soluble TRAIL [1] was 20.4%, the Late Stage Apoptotic (7-AAD+/Annexin V+), Jeko-1, 24 Hrs.; Soluble TRAIL [1] was 26.4% and the Late Stage Apoptotic (7-AAD+/Annexin V+), Jeko-1, 48 Hrs.; Soluble TRAIL [1] was 59.7%. For the same substance, the Late Stage Apoptotic (7-AAD+/Annexin V+), Jurkat, 24 Hrs.; Soluble TRAIL [1] was 22.5%, the Late Stage Apoptotic (7-AAD+/Annexin V+), Jurkat, 48 Hrs.; Soluble TRAIL [1] was 56.9% and the Live Cells (7-AAD-/Annexin V-), Jeko-1, 24 Hrs.; Soluble TRAIL [1] was 37.8%. For the same substance, the Live Cells (7-AAD-/Annexin V-), Jeko-1, 48 Hrs.; Soluble TRAIL [1] was 30.2%, the Live Cells (7-AAD-/Annexin V-), Jurkat, 24 Hrs.; Soluble TRAIL [1] was 26.3% and the Live Cells (7-AAD-/Annexin V-), Jurkat, 48 Hrs.; Soluble TRAIL [1] was 21.3%. It also gave a Necrotic (7-AAD+/Annexin V-), Jeko-1, 24 Hrs.; Soluble TRAIL [1] of 0.076%, a Necrotic (7-AAD+/Annexin V-), Jeko-1, 48 Hrs.; Soluble TRAIL [1] of 0.16% and a Necrotic (7-AAD+/Annexin V-), Jurkat, 24 Hrs.; Soluble TRAIL [1] of 0.11%. It also gave a Necrotic (7-AAD+/Annexin V-), Jurkat, 48 Hrs.; Soluble TRAIL [1] of 1.42%, a percentage of apoptotic cells (Annexin V-positive), Jeko-1, 24 h; soluble TRAIL protein [1] of 60.7% and a percentage of apoptotic cells, Jeko-1, 48 hours; soluble TRAIL protein [1] of 69.8%. For the same substance, the percentage of apoptotic cells, Jurkat, 24 h; soluble TRAIL protein [1] was 72.9% and the percentage of apoptotic cells, Jurkat, 48 h; soluble TRAIL protein [1] was 73%.

For “Biotinylated Fc-TRAIL: active fragment of the human TRAIL protein comprising SEQ ID NO: 2 with a mouse IgG2a-Fc Tag at the N-terminus (ACROBiosystems TRLH52591MG), biotinylated with Oyo-link single biotin (from UniProt P50591 114-281) (Fc fusion)”, the Early Stage Apoptotic (7-AAD-/Annexin V+), Jeko-1, 24 Hrs.; TRAIL Magnetic Beads [1] was 25.8%, the Early Stage Apoptotic (7-AAD-/Annexin V+), Jeko-1, 24 Hrs.; TRAIL Porous Hydrogels [1] was 52.1% and the Early Stage Apoptotic (7-AAD-/Annexin V+), Jeko-1, 24 Hrs.; TRAIL Smooth Hydrogels [1] was 44.8%. The Early Stage Apoptotic (7-AAD-/Annexin V+), Jeko-1, 24 Hrs.; TRAIL encapsulated PLGA [1] was 3.08%, the Early Stage Apoptotic (7-AAD-/Annexin V+), Jeko-1, 48 Hrs.; TRAIL Magnetic Beads [1] was 6.55% and the Early Stage Apoptotic (7-AAD-/Annexin V+), Jeko-1, 48 Hrs.; TRAIL Porous Hydrogels [1] was 5.77%. For the same substance, the Early Stage Apoptotic (7-AAD-/Annexin V+), Jeko-1, 48 Hrs.; TRAIL Smooth Hydrogels [1] was 11.9%, the Early Stage Apoptotic (7-AAD-/Annexin V+), Jeko-1, 48 Hrs.; TRAIL encapsulated PLGA [1] was 3.07% and the Early Stage Apoptotic (7-AAD-/Annexin V+), Jurkat, 24 Hrs.; TRAIL Magnetic Beads [1] was 22.3%. The Early Stage Apoptotic (7-AAD-/Annexin V+), Jurkat, 24 Hrs.; TRAIL Porous Hydrogels [1] was 41.9%, the Early Stage Apoptotic (7-AAD-/Annexin V+), Jurkat, 24 Hrs.; TRAIL Smooth Hydrogels [1] was 39% and the Early Stage Apoptotic (7-AAD-/Annexin V+), Jurkat, 24 Hrs.; TRAIL encapsulated PLGA [1] was 7.86%. It also gave an Early Stage Apoptotic (7-AAD-/Annexin V+), Jurkat, 48 Hrs.; TRAIL Magnetic Beads [1] of 13.8%, an Early Stage Apoptotic (7-AAD-/Annexin V+), Jurkat, 48 Hrs.; TRAIL Porous Hydrogels [1] of 22.5% and an Early Stage Apoptotic (7-AAD-/Annexin V+), Jurkat, 48 Hrs.; TRAIL Smooth Hydrogels [1] of 18.3%. It also gave an Early Stage Apoptotic (7-AAD-/Annexin V+), Jurkat, 48 Hrs.; TRAIL encapsulated PLGA [1] of 3.1%, a Late Stage Apoptotic (7-AAD+/Annexin V+), Jeko-1, 24 Hrs.; TRAIL Magnetic Beads [1] of 20.1% and a Late Stage Apoptotic (7-AAD+/Annexin V+), Jeko-1, 24 Hrs.; TRAIL Porous Hydrogels [1] of 33.9%. It also gave a Late Stage Apoptotic (7-AAD+/Annexin V+), Jeko-1, 24 Hrs.; TRAIL Smooth Hydrogels [1] of 16.9%, a Late Stage Apoptotic (7-AAD+/Annexin V+), Jeko-1, 24 Hrs.; TRAIL encapsulated PLGA [1] of 5.34% and a Late Stage Apoptotic (7-AAD+/Annexin V+), Jeko-1, 48 Hrs.; TRAIL Magnetic Beads [1] of 44.1%. The Late Stage Apoptotic (7-AAD+/Annexin V+), Jeko-1, 48 Hrs.; TRAIL Porous Hydrogels [1] was 87.5%, the Late Stage Apoptotic (7-AAD+/Annexin V+), Jeko-1, 48 Hrs.; TRAIL Smooth Hydrogels [1] was 43.1% and the Late Stage Apoptotic (7-AAD+/Annexin V+), Jeko-1, 48 Hrs.; TRAIL encapsulated PLGA [1] was 13.9%. The Late Stage Apoptotic (7-AAD+/Annexin V+), Jurkat, 24 Hrs.; TRAIL Magnetic Beads [1] was 14.9%, the Late Stage Apoptotic (7-AAD+/Annexin V+), Jurkat, 24 Hrs.; TRAIL Porous Hydrogels [1] was 18.8% and the Late Stage Apoptotic (7-AAD+/Annexin V+), Jurkat, 24 Hrs.; TRAIL Smooth Hydrogels [1] was 18%. It also gave a Late Stage Apoptotic (7-AAD+/Annexin V+), Jurkat, 24 Hrs.; TRAIL encapsulated PLGA [1] of 3.17%, a Late Stage Apoptotic (7-AAD+/Annexin V+), Jurkat, 48 Hrs.; TRAIL Magnetic Beads [1] of 32.9% and a Late Stage Apoptotic (7-AAD+/Annexin V+), Jurkat, 48 Hrs.; TRAIL Porous Hydrogels [1] of 63.5%. For the same substance, the Late Stage Apoptotic (7-AAD+/Annexin V+), Jurkat, 48 Hrs.; TRAIL Smooth Hydrogels [1] was 43%, the Late Stage Apoptotic (7-AAD+/Annexin V+), Jurkat, 48 Hrs.; TRAIL encapsulated PLGA [1] was 5.7% and the Live Cells (7-AAD-/Annexin V-), Jeko-1, 24 Hrs.; TRAIL Magnetic Beads [1] was 54%. The Live Cells (7-AAD-/Annexin V-), Jeko-1, 24 Hrs.; TRAIL Porous Hydrogels [1] was 13.6%, the Live Cells (7-AAD-/Annexin V-), Jeko-1, 24 Hrs.; TRAIL Smooth Hydrogels [1] was 38.2% and the Live Cells (7-AAD-/Annexin V-), Jeko-1, 24 Hrs.; TRAIL encapsulated PLGA [1] was 91.5%. It also gave a Live Cells (7-AAD-/Annexin V-), Jeko-1, 48 Hrs.; TRAIL Magnetic Beads [1] of 48.2%, a Live Cells (7-AAD-/Annexin V-), Jeko-1, 48 Hrs.; TRAIL Porous Hydrogels [1] of 5.18% and a Live Cells (7-AAD-/Annexin V-), Jeko-1, 48 Hrs.; TRAIL Smooth Hydrogels [1] of 44.8%. It also gave a Live Cells (7-AAD-/Annexin V-), Jeko-1, 48 Hrs.; TRAIL encapsulated PLGA [1] of 82.4%, a Live Cells (7-AAD-/Annexin V-), Jurkat, 24 Hrs.; TRAIL Magnetic Beads [1] of 62.5% and a Live Cells (7-AAD-/Annexin V-), Jurkat, 24 Hrs.; TRAIL Porous Hydrogels [1] of 39.1%. The Live Cells (7-AAD-/Annexin V-), Jurkat, 24 Hrs.; TRAIL Smooth Hydrogels [1] was 42.7%, the Live Cells (7-AAD-/Annexin V-), Jurkat, 24 Hrs.; TRAIL encapsulated PLGA [1] was 88.6% and the Live Cells (7-AAD-/Annexin V-), Jurkat, 48 Hrs.; TRAIL Magnetic Beads [1] was 49.7%. The Live Cells (7-AAD-/Annexin V-), Jurkat, 48 Hrs.; TRAIL Porous Hydrogels [1] was 12%, the Live Cells (7-AAD-/Annexin V-), Jurkat, 48 Hrs.; TRAIL Smooth Hydrogels [1] was 36% and the Live Cells (7-AAD-/Annexin V-), Jurkat, 48 Hrs.; TRAIL encapsulated PLGA [1] was 85.6%. The Necrotic (7-AAD+/Annexin V-), Jeko-1, 24 Hrs.; TRAIL Magnetic Beads [1] was 0.12%, the Necrotic (7-AAD+/Annexin V-), Jeko-1, 24 Hrs.; TRAIL Porous Hydrogels [1] was 0.34% and the Necrotic (7-AAD+/Annexin V-), Jeko-1, 24 Hrs.; TRAIL Smooth Hydrogels [1] was 0.1%. It also gave a Necrotic (7-AAD+/Annexin V-), Jeko-1, 24 Hrs.; TRAIL encapsulated PLGA [1] of 0.088%, a Necrotic (7-AAD+/Annexin V-), Jeko-1, 48 Hrs.; TRAIL Magnetic Beads [1] of 1.08% and a Necrotic (7-AAD+/Annexin V-), Jeko-1, 48 Hrs.; TRAIL Smooth Hydrogels [1] of 0.17%. For the same substance, the Necrotic (7-AAD+/Annexin V-), Jeko-1, 48 Hrs.; TRAIL encapsulated PLGA [1] was 0.62%, the Necrotic (7-AAD+/Annexin V-), Jurkat, 24 Hrs.; TRAIL Magnetic Beads [1] was 0.28% and the Necrotic (7-AAD+/Annexin V-), Jurkat, 24 Hrs.; TRAIL Porous Hydrogels [1] was 0.18%. The Necrotic (7-AAD+/Annexin V-), Jurkat, 24 Hrs.; TRAIL Smooth Hydrogels [1] was 0.23%, the Necrotic (7-AAD+/Annexin V-), Jurkat, 24 Hrs.; TRAIL encapsulated PLGA [1] was 0.36% and the Necrotic (7-AAD+/Annexin V-), Jurkat, 48 Hrs.; TRAIL Magnetic Beads [1] was 3.61%. For the same substance, the Necrotic (7-AAD+/Annexin V-), Jurkat, 48 Hrs.; TRAIL Porous Hydrogels [1] was 2.1%, the Necrotic (7-AAD+/Annexin V-), Jurkat, 48 Hrs.; TRAIL Smooth Hydrogels [1] was 2.67% and the Necrotic (7-AAD+/Annexin V-), Jurkat, 48 Hrs.; TRAIL encapsulated PLGA [1] was 5.61%. It also gave a percentage of apoptotic cells (Annexin V-positive), Jeko-1, 24 h; TRAIL attached to magnetic beads [1] of 47.1%, a percentage of apoptotic cells (Annexin V-positive), Jeko-1, 24 h; TRAIL encapsulated in PLGA microspheres [1] of 9.69% and a percentage of apoptotic cells (Annexin V-positive), Jeko-1, 24 h; TRAIL on porous hydrogel microspheres [1] of 86.3%. For the same substance, the percentage of apoptotic cells (Annexin V-positive), Jeko-1, 24 h; TRAIL on smooth hydrogel microspheres [1] was 66.3%, the percentage of apoptotic cells, Jeko-1, 48 hours; TRAIL attached to magnetic beads [1] was 50.1% and the percentage of apoptotic cells, Jeko-1, 48 hours; TRAIL encapsulated in PLGA microspheres [1] was 17.2%. It also gave a percentage of apoptotic cells, Jeko-1, 48 hours; TRAIL on porous hydrogel microspheres [1] of 93%, a percentage of apoptotic cells, Jurkat, 24 h; TRAIL attached to magnetic beads [1] of 39.5% and a percentage of apoptotic cells, Jurkat, 24 h; TRAIL encapsulated in PLGA microspheres [1] of 6.45%. It also gave a percentage of apoptotic cells, Jurkat, 24 h; TRAIL on porous hydrogel microspheres [1] of 78%, a percentage of apoptotic cells, Jurkat, 48 h; TRAIL attached to magnetic beads [1] of 57.2% and a percentage of apoptotic cells, Jurkat, 48 h; TRAIL encapsulated in PLGA microspheres [1] of 7.87%. The percentage of apoptotic cells, Jurkat, 48 h; TRAIL on porous hydrogel microspheres [1] was 81.4% and the percentage of early apoptotic cells, Jeko-1, 24 h; TRAIL on porous hydrogel microspheres (text value; Table 4A prints 52.1) [1] was 52.3%.

“PE-anti-streptavidin antibody (BioLegend, clone: 3A20.2)” was tested, and the # of STV molecules/bead (molecules/bead) (streptavidin [2]) was 120000, the # of STV molecules/bead (molecules/bead) (streptavidin [3]) was 20100 and the # of STV molecules/bead (molecules/bead) (streptavidin [4]) was 20100.
